Assay results from US20090131317A1, “COMPOUNDS AND PEPTIDES THAT BIND THE TRAIL RECEPTOR” (AFFYMAX, INC., priority 2007, published 2009).
Values joined by “and” are separate entries in the source; they are usually repeats but may differ in a detail not shown here. Equal entries are not always repeated. Numbered stars: 1 amine (or outer) side, 2 acyl side, 3 side chain; on linkers, the order of the positions; unused ones are H or OH. Bridge positions count the residues as written; N and C are the ends. Peptide text beside a SMILES is read from it. I, II: the chains in the order shown. Isophthaloyl = O=C(c1cccc(C(=O)[*:2])c1)[*:1]; Diglycolyl = O=C(COCC(=O)[*:2])[*:1]; DIG = diglycolic acid linker

target: T1, Recombinant human TRAIL R2-Fc fusion protein (R&D Systems) (human, UniProt O14763 52-182, limits assumed); assay: AlphaQuest competition: displaces biotinylated TRAIL ligand from human TRAIL R2-Fc; details: not given
T1 construct: Bought from R&D Systems; held on protein A-coated acceptor beads in the AlphaQuest/AlphaScreen assay; also called TRAIL R2 receptor; R2 receptor; not shown: Fc part of the bought fusion protein
Experimental: The plates are sealed with adhesive sealing film and covered with aluminum foil, centrifuged at 600 rpm for 30 seconds and incubated overnight in the dark. […] The raw data are analyzed using GraphPad Prism® software (La Jolla, Calif.) to calculate IC₅₀ values from a 4-parameter logistic equation.

| IC50 [nM] | Molecule |
| --- | --- |
| ≥ 100000 | Ac-DCLDNRIGRRQCVKL-NH2 (disulfide 2-12 (inferred)) [peptide monomer based on the amino acid sequence of SEQ ID NO: 25] |
| ~80 | Ac-WDCLDNRIGRRQCVK-NH2 (disulfide 3-13 (inferred)) [peptide monomer based on the amino acid sequence of SEQ ID NO: 28] |
| ~303 | Ac-GGSWDCLDNRIGRRQCVKL-NH2 (disulfide 6-16 (inferred)) [peptide monomer based on the amino acid sequence of SEQ ID NO: 20] |
| 6.2 | Ac-WDCLDRPGRRQCVK-NH2 (disulfide 3-12 (inferred); also: homodimer via diglycolic acid (DIG) linker, site not given here) [peptide homodimer based on the monomer amino acid sequence of SEQ ID NO: 22, DIG linker] |
| 1200 to 2300 | Ac-WDCLDRPGRRQCVK-NH2 (disulfide 3-12 (inferred); also: DIG linker moiety conjugated, site not given here) [peptide monomer based on the amino acid sequence of SEQ ID NO: 22 conjugated to a DIG linker moiety] |

target: T2, human TRAIL R2 (Homo sapiens, UniProt O14763); assay: AlphaQuest TRAIL R2 receptor binding competition assay (AlphaScreen, biotinylated TRAIL ligand vs TRAIL R2-Fc); details: competition with biotinylated TRAIL ligand; single values and ranges over assays; read-out: binding activity (IC50)
T2 construct: purchased R&D Systems, Minneapolis, Minn
Source text: Laser excitation (680 nm) of a photosensitizer in the donor bead generates singlet state oxygen molecules, which react with a chemiluminescer in the acceptor bead to generate a detectable light signal (520-620 nm). Because the singlet O2 molecules have an extremely short half-life (i.e., t ½), a signal is generated only when the donor and acceptor beads are brought into close proximity, by TRAIL binding to the R2 receptor. The presence of unlabeled test peptide that competes with TRAIL for binding to the R2 receptor will prevent this binding, resulting in a measurable decrease in light emission.
Recombinant human TRAIL R2-Fc fusion protein (R&D Systems, Minneapolis, Minn.) is diluted in AlphaQuest® buffer to a concentration of 600 pM, pre-mixed with 1.9 μL Protein A-coated acceptor beads and 1.9 μL streptavidin-coated donor beads (Perkin-Elmer®, Waltham, Mass.), then 2 μL is added to each well of the assay plate. […] The plates are sealed with adhesive sealing film and covered with aluminum foil, centrifuged at 600 rpm for 30 seconds and incubated overnight in the dark. […] The raw data are analyzed using GraphPad Prism® software (La Jolla, Calif.) to calculate IC50 values from a 4-parameter logistic equation.

| IC50 | Molecule |
| --- | --- |
| 3550 to 10700 nM | CC(=O)N[C@@H](Cc1c[nH]c2ccccc12)C(=O)N[C@@H](CC(=O)O)C(=O)N[C@H]1CSSC[C@@H](C(=O)N[C@H](C(=O)N[C@@H](CCCCN)C(N)=O)C(C)C)NC(=O)[C@H](CCC(N)=O)NC(=O)[C@H](CCCNC(=N)N)NC(=O)[C@H](CCCNC(=N)N)NC(=O)CNC(=O)[C@@H]2CCCN2C(=O)[C@H](CCCNC(=N)N)NC(=O)[C@H](CC(=O)O)NC(=O)[C@H](CC(C)C)NC1=O [SEQ ID NO: 22 monomer] (Ac-WDCLDRPGRRQCVK-NH2; disulfide 3-12) |
| ≥ 100000 nM | CC[C@H](C)[C@@H]1NC(=O)[C@H](CCCNC(=N)N)NC(=O)[C@H](CC(N)=O)NC(=O)[C@H](CC(=O)O)NC(=O)[C@H](CC(C)C)NC(=O)[C@@H](NC(=O)[C@H](CC(=O)O)NC(C)=O)CSSC[C@@H](C(=O)N[C@H](C(=O)N[C@@H](CCCCN)C(=O)N[C@@H](CC(C)C)C(N)=O)C(C)C)NC(=O)[C@H](CCC(N)=O)NC(=O)[C@H](CCCNC(=N)N)NC(=O)[C@H](CCCNC(=N)N)NC(=O)CNC1=O [SEQ ID NO: 25 monomer] (Ac-DCLDNRIGRRQCVKL-NH2; disulfide 2-12) |
| 0.025 to 0.092 nM and ~0.061 nM | CC[C@H](C)[C@@H]1NC(=O)[C@H](CCCNC(=N)N)NC(=O)[C@H](CC(N)=O)NC(=O)[C@H](CC(=O)O)NC(=O)[C@H](CC(C)C)NC(=O)[C@@H](NC(=O)[C@H](CC(=O)O)NC(=O)[C@H](Cc2c[nH]c3ccccc23)NC(C)=O)CSSC[C@@H](C(=O)N[C@H](C(=O)N[C@@H](CCCNC(=N)N)C(N)=O)C(C)C)NC(=O)[C@H](CCC(N)=O)NC(=O)[C@H](CCCNC(=N)N)NC(=O)[C@H](CCCCNC(=O)COCC(=O)NCCCC[C@@H]2NC(=O)CNC(=O)[C@H]([C@@H](C)CC)NC(=O)[C@H](CCCNC(=N)N)NC(=O)[C@H](CC(N)=O)NC(=O)[C@H](CC(=O)O)NC(=O)[C@H](CC(C)C)NC(=O)[C@@H](NC(=O)[C@H](CC(=O)O)NC(=O)[C@H](Cc3c[nH]c4ccccc34)NC(C)=O)CSSC[C@@H](C(=O)N[C@H](C(=O)N[C@@H](CCCNC(=N)N)C(N)=O)C(C)C)NC(=O)[C@H](CCC(N)=O)NC(=O)[C@H](CCCNC(=N)N)NC2=O)NC(=O)CNC1=O [SEQ ID NO: 33 homodimer] (I: Ac-WDCLDNRIGKRQCVR-NH2 / II: Ac-WDCLDNRIGKRQCVR-NH2; disulfide I:3-I:13, II:3-II:13; linker I:10-II:10 via Diglycolyl) |
| 200 to 5700 nM | CC[C@H](C)[C@@H]1NC(=O)[C@H](CCCNC(=N)N)NC(=O)[C@H](CC(N)=O)NC(=O)[C@H](CC(=O)O)NC(=O)[C@H](CC(C)C)NC(=O)[C@@H](NC(=O)[C@H](CC(=O)O)NC(=O)[C@H](Cc2c[nH]c3ccccc23)NC(C)=O)CSSC[C@@H](C(=O)N[C@H](C(=O)N[C@@H](CCCNC(=N)N)C(N)=O)C(C)C)NC(=O)[C@H](CCC(N)=O)NC(=O)[C@H](CCCNC(=N)N)NC(=O)[C@H](CCCCN)NC(=O)CNC1=O [SEQ ID NO: 33 monomer] (Ac-WDCLDNRIGKRQCVR-NH2; disulfide 3-13) |

system: Jurkat cells; assay: not given; assay type: cell-based; details: not given
Experimental: The apoptotic activity of test peptides is measured using a Jurkat proliferation assay.
Jurkat cells are obtained from the American Type Culture Collection (ATCC, Manassas, Va.) and are maintained in RPMI-1640 medium supplemented with 10% FBS, 100 U/mL penicillin, and 100 […] (Growth Medium). […] Cells are resuspended at a density of 1×10^6 cells/mL in Growth Medium, and 50 μl cells is added to each well of the assay plates. The plates are incubated in a 37° C., 5% CO2 incubator for 24-48 hours. Proliferation is assessed by adding 10 μL of MTT stock solution (ATCC, Manassas, Va.) to the wells. The plates are incubated in a 37° C., 5% CO2 incubator for another 2-4 hours, followed by the addition of 100 μL of 20% SDS with 0.01 N HCl. After incubation overnight in a 37° C., 5% CO2 incubator, the plates are quantified by reading the optical density at a wavelength of 595 nm (OD595) in a SpectraMax® M5 microplate reader (Molecular Devices, Sunnyvale, Calif.). The data are analyzed using GraphPad Prism® software (La Jolla, Calif.) to calculate IC50 values from a 4-parameter logistic equation.

| EC50 [nM] | Molecule |
| --- | --- |
| 1400 to 4020 | CC[C@H](C)[C@@H]1NC(=O)[C@H](CCCNC(=N)N)NC(=O)[C@H](CC(N)=O)NC(=O)[C@H](CC(=O)O)NC(=O)[C@H](CC(C)C)NC(=O)[C@@H](NC(=O)[C@H](CC(=O)O)NC(=O)[C@H](Cc2c[nH]c3ccccc23)NC(C)=O)CSSC[C@@H](C(=O)N[C@H](C(=O)N[C@@H](CCCCNC(=O)c2cccc(C(=O)NCCCC[C@H](NC(=O)[C@@H](NC(=O)[C@@H]3CSSC[C@H](NC(=O)[C@H](CC(=O)O)NC(=O)[C@H](Cc4c[nH]c5ccccc45)NC(C)=O)C(=O)N[C@@H](CC(C)C)C(=O)N[C@@H](CC(=O)O)C(=O)N[C@@H](CC(N)=O)C(=O)N[C@@H](CCCNC(=N)N)C(=O)N[C@@H]([C@@H](C)CC)C(=O)NCC(=O)N[C@@H](CCCNC(=N)N)C(=O)N[C@@H](CCCNC(=N)N)C(=O)N[C@@H](CCC(N)=O)C(=O)N3)C(C)C)C(=O)N[C@@H](CC(C)C)C(N)=O)c2)C(=O)N[C@@H](CC(C)C)C(N)=O)C(C)C)NC(=O)[C@H](CCC(N)=O)NC(=O)[C@H](CCCNC(=N)N)NC(=O)[C@H](CCCNC(=N)N)NC(=O)CNC1=O [SEQ ID NO: 19 homodimer (IPA linker)] (I: Ac-WDCLDNRIGRRQCVKL-NH2 / II: Ac-WDCLDNRIGRRQCVKL-NH2; disulfide I:3-I:13, II:3-II:13; linker I:15-II:15 via Isophthaloyl) |

target: TRAIL R2 receptor on HCT-116 or Jurkat cells (UniProt O14763 56-440, limits assumed); assay: cell-based or functional assay; details: not given

| EC50, Jurkat proliferation assay (apoptosis, MTT) [nM] | EC50, apoptotic activity in HCT-116 proliferation assay (MTT) [nM] | Molecule |
| --- | --- | --- |
| 611 to 1090 | – | Ac-WDCLVDRPGRRQCVRLERK-NH2 (disulfide 3-13 (inferred); also: homodimer via diglycolic acid (DIG) linker, site not given here) [peptide homodimer based on the peptide monomer amino acid sequence of SEQ ID NO: 30, DIG linker] |
| – | ~1620 | Ac-WDCLDNRIGRRQCVK(DIG)L-NH2 (disulfide 3-13; also: homodimer joined through DIG linker) [peptide homodimer based on the monomer amino acid sequence of SEQ ID NO: 19, DIG linker] |
| – | ~480 | Ac-WDCLDNRIGRRQCVKL-NH2 (disulfide 3-13; also: homotrimer via TSAT linker, site not given here) [peptide homotrimer based on the peptide monomer sequence of SEQ ID NO: 19, TSAT linker] |
| > 33000 | – | Ac-WDCLVDRPGRRQCVKLER-NH2 (disulfide 3-13 (inferred); also: homodimer via diglycolic acid (DIG) linker, site not given here) [peptide homodimer based on the peptide monomer amino acid sequence of SEQ ID NO: 31, DIG linker] |
| 2000 to 4410 | – | Ac-WDCLDNRIGRRQCVKL-NH2 (disulfide 3-13; also: homodimer via DOD linker, site not given here) [peptide homodimer based on the peptide monomer amino acid sequence of SEQ ID NO: 19, DOD linker] |
| 1400 to 4020 | – | Ac-WDCLDNRIGRRQCVKL-NH2 (disulfide 3-13; also: homodimer via IPA linker, site not given here) [peptide homodimer based on the peptide monomer amino acid sequence of SEQ ID NO: 19, IPA linker] |
| 1300 to 1660 | – | Ac-WDCLVDRPGRRQCVRLEK-NH2 (disulfide 3-13 (inferred); also: homodimer via diglycolic acid (DIG) linker, site not given here) [peptide homodimer based on the peptide monomer amino acid sequence of SEQ ID NO: 29, DIG linker] |
